Legend:
[1] = target: column ligand of the FLAG-Tag system (Prot)
[2] = target: column ligand of the Strep-Tag system (Prot)

Capacity [1] | Kd [1] | Capacity [2] | Kd [2] | Substance
0.6 mg/mL | 1 nM | – | – | FLAG-Tag (peptide)
– | – | 6 mg/mL | 1000 nM | Strep-Tag (peptide)

From patent US20240417426A1
